In PMC12322997, “Asxl1 regulates optic cup development through interaction with Lhx2 and epigenetic modulation of Wnt signaling” (Animal Cells and Systems, 2025):

Target: T1, GST-mAsxl1 (aa 1193-1514) (mouse, UniProt P59598 1193-1514)
T1 construct: also called GST-fused Asxl1 protein; source: E. coli, purified (glutathione-Sepharose beads)
T1 sequence (looked up): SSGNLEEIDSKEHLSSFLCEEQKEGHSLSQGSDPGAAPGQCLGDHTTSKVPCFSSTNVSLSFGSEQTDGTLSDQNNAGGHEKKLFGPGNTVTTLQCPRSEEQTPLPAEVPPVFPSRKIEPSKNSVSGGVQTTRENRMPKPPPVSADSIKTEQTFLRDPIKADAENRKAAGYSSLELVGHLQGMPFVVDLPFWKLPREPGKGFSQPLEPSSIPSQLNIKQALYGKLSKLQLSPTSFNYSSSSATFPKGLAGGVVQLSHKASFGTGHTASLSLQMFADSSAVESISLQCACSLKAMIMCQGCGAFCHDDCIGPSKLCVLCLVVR
Assay: pull-down; GST pull-down; GST-mAsxl1 on glutathione-Sepharose, His-hLHX2 purified on Ni-NTA; bound protein detected by anti-His Western blot
Conditions: both partners purified

- binding result: binds
B1: His-hLhx2 (aa 42-221) (domain or fragment, human, UniProt P50458 42-221, looked up)
chain: MPSISSDRAALCAGCGGKISDRYYLLAVDKQWHMRCLKCCECKLNLESELTCFSKDGSIYCKEDYYRRFSVQRCARCHLGISASEMVMRARDLVYHLNCFTCTTCNKMLTTGDHFGMKDSLVYCRLHFEALLQGEYPAHFNHADVAAAAAAAAAAKSAGLGAAGANPLGLPYYNGVGTVQ
notes: LHX2, human (hLHX2), residues 42-221; also called His-tagged Lhx2 protein; source: E. coli, purified (Ni-NTA agarose beads)
